Data on two molecules can be found in publication PMC10441363 (bioRxiv, 2023).

In the test the target is hemagglutinin (HA) of A/WSN/1933 (H1N1) (Influenza A virus A/WSN/1933 (H1N1), UniProt I4EPC4). Put plainly: virus aggregation by fluorescence microscopy.
hemagglutinin (HA) of A/WSN/1933 (H1N1), sequence (P03454 18-565): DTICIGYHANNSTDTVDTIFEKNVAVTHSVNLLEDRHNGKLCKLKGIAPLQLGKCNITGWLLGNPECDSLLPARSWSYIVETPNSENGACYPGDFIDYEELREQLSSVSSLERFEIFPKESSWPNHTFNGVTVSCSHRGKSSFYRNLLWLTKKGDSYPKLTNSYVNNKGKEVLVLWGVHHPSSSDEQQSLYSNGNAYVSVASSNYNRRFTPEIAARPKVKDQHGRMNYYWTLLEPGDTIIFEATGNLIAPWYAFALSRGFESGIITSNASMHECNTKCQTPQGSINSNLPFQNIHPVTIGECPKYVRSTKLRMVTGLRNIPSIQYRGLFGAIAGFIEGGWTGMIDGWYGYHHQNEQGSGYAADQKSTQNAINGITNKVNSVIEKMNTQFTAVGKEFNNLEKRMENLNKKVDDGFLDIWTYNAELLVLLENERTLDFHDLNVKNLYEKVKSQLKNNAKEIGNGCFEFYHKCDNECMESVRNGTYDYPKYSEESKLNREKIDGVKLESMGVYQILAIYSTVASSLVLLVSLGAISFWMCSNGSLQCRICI

B1: S139\1 IgG (antibody, V domains shown)
VH: QVQLQQSGTELKKPGASVKISCKATGYTFSSYWIEWIKQRPGHGLEWIGEILPEIGMTNYNENFKGKATFTANTSSNTVYMQLSSLTSEDSAVYYCARPYDYSWFAYWGQGTLVTVSA
VL: DIVMTQSQKFMSTSVGDRVSVTCKASQNVDTNVAWYQEKPGQSPKTLIYSASNRYSGVPDRFTGSASGTDFTLTITNVQSEDLAEYFCQQYNSYPYTFGGGTKLEIK
Turning to B1, the binding result is “binds”.

B2: C05 IgG (antibody, V domains shown)
VH: QVQLQESGGGLVQPGESLRLSCVGSGSSFGESTLSYYAVSWVRQAPGKGLEWLSIINAGGGDIDYADSVEGRFTISRDNSKETLYLQMTNLRVEDTGVYYCAKHMSMQQVVSAGWERADLVGDAFDVWGQGTMVTVSS
VL: DIQLTQSPSSLSASVGDRVTLTCQASQDIRKFLNWYQQKPGKGPKLLIYDASNLQRGVPSRFSGGGSGTDFTLIISSLQPEDVGTYYCQQYDGLPFTFGGGTKVVIK
For B2, the binding result is “binds”.
